In article PMC9098846, “Molecular insights into biogenesis of glycosylphosphatidylinositol anchor proteins” (Nature Communications, 2022):

B1: PIGS, subunit of the human GPI transamidase (GPI-T) (natural protein)
chain: AAAGAAATHLEVARGKRAALFFAAVAIVLGLPLWWKTTETYRASLPYSQISGLNALQLRLMVPVTVVFTRESVPLDDQEKLPFTVVHEREIPLKYKMKIKCRFQKAYRRALDHEEEALSSGSVQEAEAMLDEPQEQAEGSLTVYVISEHSSLLPQDMMSYIGPKRTAVVRGIMHREAFNIIGRRIVQVAQAMSLTEDVLAAALADHLPEDKWSAEKRRPLKSSLGYEITFSLLNPDPKSHDVYWDIEGAVRRYVQPFLNALGAAGNFSVDSQILYYAMLGVNPRFDSASSSYYLDMHSLPHVINPVESRLGSSAASLYPVLNFLLYVPELAHSPLYIQDKDGAPVATNAFHSPRWGGIMVYNVDSKTYNASVLPVRVEVDMVRVMEVFLAQLRLLFGIAQPQLPPKCLLSGPTSEGLMTWELDRLLWARSVENLATATTTLTSLAQLLGKISNIVIKDDVASEVYKAVAAVQKSAEELASGHLASAFVASQEAVTSSELAFFDPSLLHLLYFPDDQKFAIYIPLFLPMAVPILLSLVKIFLETRKSWRKPEKTD
notes: PIGS, human, Genbank ID NP_149975.1; The Myc tag follows the TGP tag; also called Gpi17p (yeast name); source: Expi293 cells co-transfected with five plasmids carrying all subunits; purified as the GPI-T complex (Strep-Tactin, Ni-NTA, gel filtration) in digitonin
B2: PIGT, subunit of the human GPI transamidase (GPI-T) (natural protein)
chain: LAEPPRDSLREELVITPLPSGDVAATFQFRTRWDSELQREGVSHYRLFPKALGQLISKYSLRELHLSFTQGFWRTRYWGPPFLQAPSGAELWVWFQDTVTDVDKSWKELSNVLSGIFCASLNFIDSTNTVTPTASFKPLGLANDTDHYFLRYAVLPREVVCTENLTPWKKLLPCSSKAGLSVLLKADRLFHTSYHSQAVHIRPVCRNARCTSISWELRQTLSVVFDAFITGQGKKDWSLFRMFSRTLTEPCPLASESRVYVDITTYNQDNETLEVHPPPTTTYQDVILGTRKTYAIYDLLDTAMINNSRNLNIQLKWKRPPENEAPPVPFLHAQRYVSGYGLQKGELSTLLYNTHPYRAFPVLLLDTVPWYLRLYVHTLTITSKGKENKPSYIHYQPAQDRLQPHLLEMLIQLPANSVTKVSIQFERALLKWTEYTPDPNHGFYVSPSVLSALVPSMVAAKPVDWEESPLFNSLFPVSDGSNYFVRLYTEPLLVNLPTPDFSMPYNVICLTCTVVAVCYGSFYNLLTRTFHIEEPRTGGLAKRLANLIRRARGVPPL
modifications: disulfide bond from C182 to PIGK C92
notes: PIGT, human, Genbank ID NP_057021.2; also called Gpi16p (yeast name); source: Expi293 cells co-transfected with five plasmids carrying all subunits; purified as the GPI-T complex (Strep-Tactin, Ni-NTA, gel filtration) in digitonin; not shown: 9×His, C-terminal, kept
B3: PIGK, subunit of the human GPI transamidase (GPI-T) (enzyme)
chain: SHIEDQAEQFFRSGHTNNWAVLVCTSRFWFNYRHVANTLSVYRSVKRLGIPDSHIVLMLADDMACNPRNPKPATVFSHKNMELNVYGDDVEVDYRSYEVTVENFLRVLTGRIPPSTPRSKRLLSDDRSNILIYMTGHGGNGFLKFQDSEEITNIELADAFEQMWQKRRYNELLFIIDTCQGASMYERFYSPNIMALASSQVGEDSLSHQPDPAIGVHLMDRYTFYVLEFLEEINPASQTNMNDLFQVCPKSLCVSTPGHRTDLFQRDPKNVLITDFFGSVRKVEITTETIKLQQDSEIMESSYKEDQMDEKLMEPLKYAEQLPVAQIIHQKPKLKDWHPPGGFILGLWALIIMVFFKTYGIKHMKFIF
modifications: disulfide bond from C92 to PIGT C182
notes: PIGK, human, Genbank ID NP_005473.1; The HA tag follows the TGP tag; also called Gpi8p (yeast name); source: Expi293 cells co-transfected with five plasmids carrying all subunits; purified as the GPI-T complex (Strep-Tactin, Ni-NTA, gel filtration) in digitonin
B4: PIGU, subunit of the human GPI transamidase (GPI-T) (natural protein)
chain: AAPLVLVLVVAVTVRAALFRSSLAEFISERVEVVSPLSSWKRVVEGLSLLDLGVSPYSGAVFHETPLIIYLFHFLIDYAELVFMITDALTAIALYFAIQDFNKVVFKKQKLLLELDQYAPDVAELIRTPMEMRYIPLKVALFYLLNPYTILSCVAKSTCAINNTLIAFFILTTIKGSAFLSAIFLALATYQSLYPLTLFVPGLLYLLQRQYIPVKMKSKAFWIFSWEYAMMYVGSLVVIICLSFFLLSSWDFIPAVYGFILSVPDLTPNIGLFWYFFAEMFEHFSLFFVCVFQINVFFYTIPLAIKLKEHPIFFMFIQIAVIAIFKSYPTVGDVALYMAFFPVWNHLYRFLRNIFVLTCIIIVCSLLFPVLWHLWIYAGSANSNFFYAITLTFNVGQILLISDYFYAFLRREYYLTHGLYLTAKDGTEAMLVLK
notes: PIGU, human, Genbank ID NP_536724.1; gene assembled from overlapping oligonucleotides; also called Gab1p (yeast name); source: Expi293 cells co-transfected with five plasmids carrying all subunits; purified as the GPI-T complex (Strep-Tactin, Ni-NTA, gel filtration) in digitonin; not shown: Strep, C-terminal, kept

Experiments:
Test in all cases: cryo-EM structure; single-particle cryo-EM of the purified GPI-T complex in 0.1% digitonin, 150 mM NaCl, 20 mM Tris HCl pH 8.0; 2.53 Å; five subunits with 1:1 stoichiometry
Settings in all cases: both partners purified
[1] = molecular target: B2
[2] = molecular target: T1, GPAA1, subunit of the human GPI transamidase (GPI-T) (human, UniProt O43292-1 2-621)
T1 construct: GPAA1, human, Genbank ID NP_003792.1; The 2×Flag tag follows the TGP tag; also called Gaa1p (yeast name); source: Expi293 cells co-transfected with five plasmids carrying all subunits; purified as the GPI-T complex (Strep-Tactin, Ni-NTA, gel filtration) in digitonin
T1 sequence: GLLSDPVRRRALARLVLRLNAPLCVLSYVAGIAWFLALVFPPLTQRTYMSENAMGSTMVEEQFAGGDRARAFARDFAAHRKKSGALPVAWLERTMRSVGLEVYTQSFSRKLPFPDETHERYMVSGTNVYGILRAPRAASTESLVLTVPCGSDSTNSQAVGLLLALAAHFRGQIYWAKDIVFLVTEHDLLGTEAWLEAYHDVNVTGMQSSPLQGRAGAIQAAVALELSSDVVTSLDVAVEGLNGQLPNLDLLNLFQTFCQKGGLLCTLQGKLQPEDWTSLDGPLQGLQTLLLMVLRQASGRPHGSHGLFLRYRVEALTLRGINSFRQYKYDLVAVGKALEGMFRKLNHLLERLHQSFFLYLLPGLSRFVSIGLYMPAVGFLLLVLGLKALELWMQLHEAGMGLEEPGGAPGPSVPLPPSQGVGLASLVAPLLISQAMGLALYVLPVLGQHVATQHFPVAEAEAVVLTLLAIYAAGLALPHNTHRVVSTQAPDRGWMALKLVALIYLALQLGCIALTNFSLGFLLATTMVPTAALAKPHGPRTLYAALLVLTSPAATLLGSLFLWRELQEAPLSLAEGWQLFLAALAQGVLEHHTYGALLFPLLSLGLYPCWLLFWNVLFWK

[3] = molecular target: B4
[4] = molecular target: B1

Binder	binding result [1]	binding result [2]	binding result [3]	binding result [4]
B1	binds			
B2		binds		
B3	binds		binds	binds
B4	binds	binds		binds
